# Assay results published in article PMC3839849.
# Like-named read-outs stand apart in the source and are kept apart here.
# What was measured:
# Assay in all cases: ITC
# CaV1.2 IQ domain (human) = biological target: CaV1.2 IQ domain (human)
# [1] = biological target: CaV1.2 IQ domain TripleA mutant (CaV1.2 F1618A, F1619A, Y1622A) (human)
# [2] = biological target: CaV1.2 IQ domain (Homo sapiens) (UniProt Q13936)
# [3] = biological target: CaV1.2 IQ domain TripleA mutant (CaV1.2 F1618A, F1619A, Y1622A) (human); remark: listed apart in the source
Substance,Kd (CaV1.2 IQ domain (human)) [nM],dH (CaV1.2 IQ domain (human)) [kcal/mol],dH [1] [kcal/mol],Kd [2] [nM],Kd [1] [nM],stoichiometry N [1],Kd [3] [nM]
"calmodulin (CaM), full-length (from UniProt P0DP23 1-149) (natural protein)",0.00085,-5.74,-10.6,,,,
"CaBP1 N-lobe, Q9NZU7",,,,1100,,,
calcium binding protein 1 (CaBP1) Δ2–15 (natural protein),,,-4.77,,10.9,0.89,221
